From the DeepSol protein solubility set

Assay: soluble on expression in E. coli; label from the status in PepcDB or PDB records
For “MGSSHHHHHHSSGLVPRGSHMIRNRVMNSVVNKYLLHNRSIMFKNDQDVERFFYKREIENRKKHKQPSTLNVKANLEKLSLDDMQVFRFNFRHQIDKKILYIHGGFNALQPSPFHWRLLDKITLSTLYEVVLPIYPKTPEFHIDDTFQAIQRVYDQLVSEVGHQNVVVMGDGSGGALALSFVQSLLDNQQPLPNKLYLISPILDATLSNKDISDALIEQDAVLSQFGVNEIMKKWANGLPLTDKRISPINGTIEGLPPVYMFGGGREMTHPDMKLFEQMMLQHHQYIEFYDYPKMVHDFPIYPIRQSHKAIKQIAKSIDEDVTQNN”, the “soluble on expression in E. coli” value was “soluble”. For “MGSSHHHHHHSSGLVPRGSHMKAMNKVWVIGDASVDLVPEKQNSYLKCPGGASANVGVCVARLGGECGFIGCLGDDDAGRFLRQVFQDNGVDVTFLRLDADLTSAVLIVNLTADGERSFTYLVHPGADTYVSPQDLPPFRQYEWFYFSSIGLTDRPAREACLEGARRMREAGGYVLFDVNLRSKMWGNTDEIPELIARSAALASICKVSADELCQLSGASHWQDARYYLRDLGCDTTIISLGADGALLITAEGEFHFPAPRVDVVDTTGAGDAFVGGLLFTLSRANCWDHALLAEAISNANACGAMAVTAKGAMTALPFPDQLNTFLSSHSLAQAMTVK”, the “soluble on expression in E. coli” value was “soluble”. For “MGSSHHHHHHSSGLVPRGSHMQQKLTSPDNNLVMTFQVDSKGAPTYELTYKNKVVIKPSTLGLELKKEDNTRTDFDWVDRRDLTKLDSKTNLYDGFEVKDTQTATFDETWQPVWGEEKEIRNHYNELAVTLYQPMNDRSIVIRFRLFNDGLGFRYEFPQQKSLNYFVIKEEHSQFGMNGDHIAFWIPGDYDTQEYDYTISRLSEIRGLMKEAITPNSSQTPFSQTGVQTALMMKTDDGLYINLHEAALVDYSCMHLNLDDKNMVFESWLTPDAKGDKGYMQTPCNTPWRTIIVSDDARNILASRITLNLNEPCKIADAASWVKPVKYIGVWWDMITGKGSWAYTDELTSVKLGETDYSKTKPNGKHSANTANVKRYIDFAAAHGFDAVLVEGWNEGWEDWFGNSKDYVFDFVTPYPDFDVKEIHRYAARKGIKMMMHHETSASVRNYERHMDKAYQFMADNGYNSVKSGYVGNIIPRGEHHYGQWMNNHYLYAVKKAADYKIMVNAHEATRPTGICRTYPNLIGNESARGTEYESFGGNKVYHTTILPFTRLVGGPMDYTPGIFETHCNKMNPANNSQVRSTIARQLALYVTMYSPLQMAADIPENYERFMDAFQFIKDVALDWDETNYLEAEPGEYITIARKAKDTDDWYVGCTAGENGHTSKLVFDFLTPGKQYIATVYADAKDADWKENPQAYTIKKGILTNKSKLNLHAANGGGYAISIKEVKDKSEAKGLKRL”, the “soluble on expression in E. coli” value was “soluble”. For “MGSSHHHHHHSSGLVPRGSHMTVYTASVTAPVNIATLKYWGKRDTKLNLPTNSSISVTLSQDDLRTLTSAATAPEFERDTLWLNGEPHSIDNERTQNCLRDLRQLRKEMESKDASLPTLSQWKLHIVSENNFPTAAGLASSAAGFAALVSAIAKLYQLPQSTSEISRIARKGSGSACRSLFGGYVAWEMGKAEDGHDSMAVQIADSSDWPQMKACVLVVSDIKKDVSSTQGMQLTVATSELFKERIEHVVPKRFEVMRKAIVEKDFATFAKETMMDSNSFHATCLDSFPPIFYMNDTSKRIISWCHTINQFYGETIVAYTFDAGPNAVLYYLAENESKLFAFIYKLFGSVPGWDKKFTTEQLEAFNHQFESSNFTARELDLELQKDVARVILTQVGSGPQETNESLIDAKTGLPKE”, the “soluble on expression in E. coli” value was “soluble”. With “MGSSHHHHHHSSGLVPRGSHWGSPNSSSVDKLMDTIVAVATPPGKGAIAILRLSGPDSWKIVQKHLRTRSKIVPRKAIHGWIHENGEDVDEVVVVFYKSPKSYTGEDMVEVMCHGGPLVVKKLLDLFLKSGARMAEPGEFTKRAFLNGKMDLTSAEAVRDLIEAKSETSLKLSLRNLKGGLRDFVDSLRRELIEVLAEIRVELDYPDEIETNTGEVVTRLERIKEKLTEELKKADAGILLNRGLRMVIVGKPNVGKSTLLNRLLNEDRAIVTDIPGTTRDVISEEIVIRGILFRIVDTAGVRSETNDLVERLGIERTLQEIEKADIVLFVLDASSPLDEEDRKILERIKNKRYLVVINKVDVVEKINEEEIKNKLGTDRHMVKISALKGEGLEKLEESIYRETQEIFERGSDSLITNLRQKQLLENVKGHLEDAIKSLKEGMPVDMASIDLERALNLLDEVTGRSFREDLLDTIFSNFCVGK” the “soluble on expression in E. coli” value was “soluble”. With “MGSSHHHHHHSSGLVPRGSPTVTPTVNRENKPTCYPKAEISRLSASQIRNLNPVFGGSGPALTGLRNLGNTCYMNSILQCLCNAPHLADYFNRNCYQDDINRSNLLGHKGEVAEEFGIIMKALWTGQYRYISPKDFKITIGKINDQFAGYSQQDSQELLLFLMDGLHEDLNKADNRKRYKEENNDHLDDFKAAEHAWQKHKQLNESIIVALFQGQFKSTVQCLTCHKKSRTFEAFMYLSLPLASTSKCTLQDCLRLFSKEEKLTDNNRFYCSHCRARRDSLKKIEIWKLPPVLLVHLKRFSYDGRWKQKLQTSVDFPLENLDLSQYVIGPKNNLKKYNLFSVSNHYGGLDGGHYTAYCKNAARQRWFKFDDHEVSDISVSSVKSSAAYILFYTSLG” the “soluble on expression in E. coli” value was “soluble”. With “MGSSHHHHHHSSGRENLYFQGHMQWETVIGLEIHAQLATQSKIFSGSSTAFGAAPNTQASLVDLAMPGTLPVLNEEAVRMACLFGLAIDARIDRQNVFARKNYFYPDLPKGYQTSQMDHPIVGKGHLDITLEDGTTKRIGITRAHLEEDAGKSLHEDFQGMSGIDLNRAGTPLLEIVSEPDIRSAKEAVAYVKAIHALVRYLGICDGNMAEGSLRCDCNVSVRPKGQAEFGTRAEIKNVNSFRFIEKAINHEIQRQIELIEDGGKVVQETRLYDPNKDETRSMRGKEEANDYRYFPCPDLLPVVIEPEYLAKLREQLPELPVQKRERFESQYGLSAYDASVLSASREMADYFEKVQGICGDAKLAANWVMVELGSLLNKDGLEIEQSPVSAEQLGGMILRIKDNTISGKLAKMVFEAMANGEGSADQIIEAKGLKQVTDSGAIEKMLDEVLAANAEQVEQYRAADEAKRGKMFGFFVGQAMKASKGKANPQQVNELLKKKLEA” the “soluble on expression in E. coli” value was “soluble”. For “MGSTRWDAVNKFSVENWYPHLRKHTFKSHFITLNYNDIHYLMGNIPPDYDSSKLESIFNKILSEFNNKEVFMRLSTRSPKDSKFLFEEASTIMSKDFVYWNENDNKHQQLVSFVASMLKAMKIKSGRKIIETIAQSPRVYNDLLALVSSSNQSDCTTNVILREWHDIRPDHEFRVFVSRRHRKESIVTAISQYFHFLYFDKSPADCFNFLDEEDKKAVIKKFENYVLKSVDPDVAKFLNFSSEQDDDESSDCIREYIVDLALIPVSQYHGEITDENIIEIGANTYVMVVIELNPFAPAATGSGLFNWKNDLMMLWGKASCDYPVFKYRTTPREDLQSVSLLPSNYESVIKSALIKRLETSYSNSASQKERFFSSTKPVTESSGSALLDMVTKPLEHHHHHH”, the “soluble on expression in E. coli” value was “soluble”. In the case of “MGTLLIDVDGTVVDSYPGIREAFIHSMTSVGIPVPEESWLRRIPGPPMVETMRALGQSDSVTAAALACFRQQYDQISWRNSQLFDGWHDALSEWRSQGIRLFTATSKNEHLARLTLEYLGVADLFDFIGGADPTVGRETKADVIAYVLATTETSEHSPILMVGDRSHDTEGAAAFGIPTMLVTWGYGNEQEWSHADYHARNMAEAKGIVRDFFN”, the “soluble on expression in E. coli” value was “not soluble”. In the case of “MGVFRTRFTETFGVEHPIMQGGMQWVGRAEMAAAVANAGGLATLSALTQPSPEALAAEIARCRELTDRPFGVNLTLLPTQKPVPYAEYRAAIIEAGIRVVETAGNDPGEHIAEFRRHGVKVIHKCTAVRHALKAERLGVDAVSIDGFECAGHPGEDDIPGLVLLPAAANRLRVPIIASGGFADGRGLVAALALGADAINMGTRFLATRECPIHPAVKAAIRAADERSTDLIMRSLRNTARVARNAISQEVLAIEARGGAGYADIAALVSGQRGRQVYQQGDTDLGIWSAGMVQGLIDDEPACAELLRDIVEQARQLVRQRLEGMLAGV”, the “soluble on expression in E. coli” value was “soluble”. In the case of “MGWCVMAVLVDSETRVLVQGITGREGSFHAKAMLEYGTKVVAGVTPGKGGSEVHGVPVYDSVKEALAEHPEINTSIVFVPAPFAPDAVYEAVDAGIRLVVVITEGIPVHDTMRFVNYARQKGATIIGPNCPGAITPGQAKVGIMPGHIFKEGGVAVVSRSGTLTYEISYMLTRQGIGQSTVIGIGGDPIVGLSFTEALKLFQEDPQTEALVLIGEIGGDMEERAAEMIKKGEFTKPVIAYIAGRTAPPEKRMGHAGAIIMMGTGTYEGKVKALREAGVEVAETPFEVPELVRKALRR”, the “soluble on expression in E. coli” value was “soluble”. For “MGYESMLADIKSSLNGKISDVEDKIEKLKKAKKDIDTLQEEAITEIKEIVKPELGKHWTGTKADDFDKGREEAKSEASKIVNDKYNEYMASINGKIFDLEWDKAKYASELFIANGAADLLKKGEEFAEEVGNTISKLKWWLEHHHHHH”, the “soluble on expression in E. coli” value was “soluble”.
